Measured values reported in PMC3130014, “The Cryo-EM Structure of a Complete 30S Translation Initiation Complex from Escherichia coli” (PLoS Biology, 2011).

Molecular target: T1, initiation factor 2 (IF2α) from E. coli (E. coli, UniProt P0A705 1-890)
T1 construct: Translation initiation factor IF2, alpha form (IF2α), E. coli; CTD: G2 391-559, G3 560-672, C1 673-779, C2 780-890); source: prepared as described [14]
Experiment: cryo-EM structure; 30S IC reconstituted from 30S subunits (0.1 µM), IF1 (0.3 µM), IF2α (0.2 µM), IF3 (0.3 µM), 002 mRNA (0.6 µM), fMet-tRNA^fMet (0.6 µM), GDPNP (0.5 mM); 37°C 15 min, buffer A (50 mM Tris-HCl pH 7.5, 70 mM NH4Cl, 30 mM KCl, 7 mM MgCl2); class 2 map at 18.3/15 Å; rigid-body and flexible fitting of a homology model of IF2
Settings: both partners purified

T1 sequence (P0A705 whole entry): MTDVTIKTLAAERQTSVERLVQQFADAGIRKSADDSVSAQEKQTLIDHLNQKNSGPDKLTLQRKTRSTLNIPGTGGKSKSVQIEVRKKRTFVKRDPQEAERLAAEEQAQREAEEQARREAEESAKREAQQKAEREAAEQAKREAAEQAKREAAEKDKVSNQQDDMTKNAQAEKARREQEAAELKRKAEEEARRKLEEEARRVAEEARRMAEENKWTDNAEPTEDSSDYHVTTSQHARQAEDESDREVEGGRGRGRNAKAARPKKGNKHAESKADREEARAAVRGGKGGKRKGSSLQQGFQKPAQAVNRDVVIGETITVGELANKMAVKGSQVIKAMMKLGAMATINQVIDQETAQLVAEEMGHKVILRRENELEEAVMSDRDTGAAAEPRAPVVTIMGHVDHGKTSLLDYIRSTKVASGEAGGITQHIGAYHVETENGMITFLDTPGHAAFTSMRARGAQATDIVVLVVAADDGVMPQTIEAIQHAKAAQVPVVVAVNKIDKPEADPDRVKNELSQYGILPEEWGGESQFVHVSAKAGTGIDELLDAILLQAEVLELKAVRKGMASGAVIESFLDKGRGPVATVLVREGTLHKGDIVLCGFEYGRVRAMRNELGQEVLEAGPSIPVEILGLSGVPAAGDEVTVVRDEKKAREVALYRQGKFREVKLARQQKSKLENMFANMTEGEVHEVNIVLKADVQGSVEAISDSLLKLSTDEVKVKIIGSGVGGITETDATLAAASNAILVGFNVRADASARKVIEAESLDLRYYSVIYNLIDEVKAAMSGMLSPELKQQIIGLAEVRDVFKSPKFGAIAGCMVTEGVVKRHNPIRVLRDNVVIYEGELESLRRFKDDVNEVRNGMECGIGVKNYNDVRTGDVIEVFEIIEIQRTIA

- binding result: binds
B1: initiation factor 1 (IF1) from E. coli (natural protein, UniProt P69222 1-72, looked up)
chain: MAKEDNIEMQGTVLETLPNTMFRVELENGHVVTAHISGKMRKNYIRILTGDKVTVELTPYDLSKGRIVFRSR
notes: Translation initiation factor IF1, E. coli; source: prepared as described [14]
